Data on 9 substances can be found in publication PMC6547681, “Structures of BCL-2 in complex with venetoclax reveal the molecular basis of resistance mutations” (Nature Communications, 2019).

One assay concerns the target BIMBH3 peptide. As to the kind of experiment: SPR; direct binding; biotinylated BIMBH3 or BAXBH3 peptide immobilised on SA sensor chip, BCL-2 (0-63 nM) as analyte; HBS-EP (10 mM hepes pH 7.4, 150 mM sodium chloride, 3.4 mM EDTA, 0.005% tween 20, optionally 1 mM TCEP for BAXBH3), 25 °C; BIAcore 4000 or S200; 1:1 binding site kinetic model; BIMBH3-4A reference surface. (SPR reads the build-up and loss of mass on a sensor chip optically.)

The next assay has as its target BAXBH3 peptide. The assay is described as above.
The target of a further assay is venetoclax. The experiment in a line: steady-state competition SPR. The following applies: BIMBH3 peptide immobilised on chip; BCL-2 analyte pre-combined with venetoclax at 0, 20, 40, 60 nM.
A further assay deals with S55746. As to the kind of experiment: steady-state competition SPR. The following applies: BIMBH3 peptide immobilised on chip; BCL-2 analyte pre-combined with S55746 at 0, 20, 40, 60 nM.

For orientation: Kd means the constant that tells how readily two partners part at equilibrium. Read a low Kd as a tighter complex. In general, Ki refers to a measure of affinity in units of concentration, obtained from inhibition or displacement.

Chain of BIMBH3 peptide (O43521 141-166): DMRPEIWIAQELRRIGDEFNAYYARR
Chain of BAXBH3 peptide (Q07812 other isoform, or with tags, fused parts or gaps): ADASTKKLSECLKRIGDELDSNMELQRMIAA

On to “BCL-2 E152A (from UniProt P10415 1-239) (natural protein)”, for which the Kd is 0.36 nM with BIMBH3 peptide and 3.6 nM with BAXBH3 peptide.

Take “BCL-2 F104C (from UniProt P10415 1-239) (natural protein)”: the values for the dissociation constant Kd with BIMBH3 peptide and with BAXBH3 peptide were 0.17 nM and 4 nM, respectively. In turn, “BCL-2 G101A (from UniProt P10415 1-239) (natural protein)” gave a Kd in the assay with BIMBH3 peptide of 0.23 nM. Regarding “BCL-2 G101V/E152A double mutant (from UniProt P10415 1-239) (natural protein)”, the Kd in the assay with BIMBH3 peptide came to 0.63 nM; in the assay with BAXBH3 peptide, 5.5 nM. BCL-2 WT (from UniProt P10415) E152A: the Ki in the assay with venetoclax was 0.027 nM. Still for that read-out and setting: for BCL-2 WT (from UniProt P10415) F104C the value was 25.1 nM; for BCL-2 WT (from UniProt P10415) G101A, 0.11 nM. For the substance BCL-2 WT (from UniProt P10415) G101V, the Ki with S55746 amounted to 36 nM. In the case of “BCL-2 WT (from UniProt P10415) G101V; E152A”, the Ki came out at 0.002 nM in the assay with venetoclax and 5.3 nM in the assay with S55746.
